Test system: T1, PhoB (Bacteroides fragilis YCH46), ORF:3d02aa67
T1 sequence: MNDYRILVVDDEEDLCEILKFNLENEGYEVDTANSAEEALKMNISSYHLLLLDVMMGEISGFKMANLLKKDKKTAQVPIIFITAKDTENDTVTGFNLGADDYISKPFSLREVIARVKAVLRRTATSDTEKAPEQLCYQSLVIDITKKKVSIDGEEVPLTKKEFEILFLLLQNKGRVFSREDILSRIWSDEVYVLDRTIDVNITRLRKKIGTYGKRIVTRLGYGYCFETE
Experiment: EMSA
Conditions: EMSA: 50 mM Tris-HCl pH 7.5, 50 mM KCl, 10 mM MgCl2, 0.5 mM EDTA, 30 min at 25 C; 5% polyacrylamide gel. PS B and PS E promoter fragments (S55/S56, S57/S58 …)

## GGAATGGCTGGTAATCAAGTGCCTTGACTGCATCTGCATTGGCTTCTCCGTATTGAAATGATGGAGCAGCATAAGTGACTTGGCATTGAACTCCTGTAACATAATCCGGATTTTCTCCATTAAGATTATATTTAAGAGGTACGTTGGACGATGTGAAGATTAACGACGTCAACGAAGTAGTACCTGTTCCACCGAAAATATTGCCGGTAGCATAAGGTACTTCTATATCGTCGTTATCCGATGCCACTTTGATAAACTTAATATCGATGCGTGATACAATGCGTTCCAGA (double strand) [BF3397 internal fragment]
  binding: no binding
